According to patent US20220017627A1:
Numbering of substitutions follows the chain as printed. Names may count otherwise.

Assays:
[1] = target: human IL-7Rα expressed on non-T cells (CD3- cells, monocytes) (human) (UniProt P16871); experiment: cell-based or functional assay
[2] = target: T1, hIL-7R (Example 11) (human) (UniProt P16871); experiment: NGS enrichment ratio of the mutation in the scFv library selected at 0.2 nM hIL-7R
T1 sequence: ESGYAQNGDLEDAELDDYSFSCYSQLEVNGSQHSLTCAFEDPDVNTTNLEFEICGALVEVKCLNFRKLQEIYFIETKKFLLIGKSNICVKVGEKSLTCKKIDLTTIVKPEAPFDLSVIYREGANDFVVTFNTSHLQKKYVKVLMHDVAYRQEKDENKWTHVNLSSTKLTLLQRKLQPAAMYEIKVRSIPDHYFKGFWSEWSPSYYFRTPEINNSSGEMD

[3] = target: T1, hIL-7R (Example 11) (human); experiment: SPR (Biacore), ratio KD of parent 18B1 to KD of variant
[4] = target: T1, hIL-7R (Example 11) (human); experiment: SPR at 37C
[5] = target: T1, hIL-7R (Example 11) (human); experiment: NGS enrichment ratio, parental scFv, reference of the normalisation [cont'd]

B1: Anti-IL-7R Antibody (Antibody A) (antibody, human IgG1, kappa, V domains shown)
VH: EVQLVESGGGLVQPGRSLRLSCAASGFTFDDHAMHWVRQAPGKGLEWVSGISWNSRGIGYADSVKGRFTIFRDNAKNSLYLQMNSLRAEDTALYYCAKDEYSRGYYVLDVWGQGTTVTVSS
VL: AIQLTQSPSSLSASVGDRVTITCRASQGISSALAWYQQKPGKAPKLLIYDASSLESGVPSRFSGSGSGTDFTLTISSLQPEDFATYYCQQFNSYPLWITFGQGTRLEIKR
Question: Which MCP1 Production IC50, purified monocytes, TSLP [1] does the source give for B1 here?
Answer: The MCP1 Production IC50, purified monocytes, TSLP was 24 nM.

B2: 18B1 LC Y94A (antibody, human IgG1, kappa, V domains shown)
VH: B1 VH
VL: B1 VL with Y94A
Question: Which 0.2 nM NGS [2] does the source give for B2 here?
Answer: Its 0.2 nM NGS is 0.01.

Question: And the KD Relative to 18B1 [3]?
Answer: The KD Relative to 18B1 was 0.01.

B3: 18B1 scFv (scFv, V domains shown, not shown: small tags and cut ends)
VH: B1 VH
VL: AIQLTQSPSSLSASVGDRVTITCRASQGISSALAWYQQKPGKAPKLLIYDASSLESGVPSRFSGSGSGTDFTLTISSLQPEDFATYYCQQFNSYPLWITFGQGTRLEIK
modifications: linker; domain order unknown
Question: Which results are given for B3?
Answer: Kd [4]: 1.3 nM; koff [4]: 0.000403 s⁻¹; kon [4]: 311000 M⁻¹ s⁻¹; 0.2 nM NGS [5]: 1

B4: 18B1 LC L95aA (antibody, V domains shown)
VH: B1 VH
VL: B1 VL with L96A
Question: Which results are given for B4?
Answer: 0.2 nM NGS [2]: 0.01; KD Relative to 18B1 [3]: 0.01
